According to patent US20230025732A1 (INNATE PHARMA, published 2023):

T1: human CD39 expressed at the cell surface (human, UniProt P49961 1-510)
T1 construct: On CHO transfectants, Hek-293T transfectants, Ramos and Mino tumor cells; also called huCD39; CHO-huCD39
T1 sequence: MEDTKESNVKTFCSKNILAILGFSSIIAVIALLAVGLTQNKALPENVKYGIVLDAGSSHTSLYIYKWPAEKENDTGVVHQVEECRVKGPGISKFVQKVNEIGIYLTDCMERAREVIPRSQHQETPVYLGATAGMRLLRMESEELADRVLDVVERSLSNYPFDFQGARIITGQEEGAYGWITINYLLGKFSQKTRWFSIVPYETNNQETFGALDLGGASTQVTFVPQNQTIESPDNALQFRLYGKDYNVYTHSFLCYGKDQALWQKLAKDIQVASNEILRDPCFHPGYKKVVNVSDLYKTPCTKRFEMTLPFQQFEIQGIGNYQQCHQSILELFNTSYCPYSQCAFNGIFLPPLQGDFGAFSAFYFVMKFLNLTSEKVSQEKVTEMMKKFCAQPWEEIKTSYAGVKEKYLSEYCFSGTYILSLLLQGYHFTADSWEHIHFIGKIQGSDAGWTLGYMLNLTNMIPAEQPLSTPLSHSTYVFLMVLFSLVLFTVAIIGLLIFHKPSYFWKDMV


Each binder was assayed against T1, human CD39 expressed at the cell surface (assay: flow cytometry titration on Ramos lymphoma cells (Mean of Fluorescence), panel L1).

binding result | Binder
binds | mAb8 H2L1 (antibody, human IgG1, V domains shown) VH: QVQLVQSGAEVKKPGASVKVSCKASGYTFTDYNMHWVRQAPGQRLEWMGYIVPLNGGSTFNQKFKGRATITVDTSASTAYMELSSLRSEDTAVYYCARGGTRFAYWGQGTLVTVSS VL: DIVMTQSPDSLAVSLGERATINCRASESVDNFGVSFMYWFQQKPGQPPKLLIYGASNQGSGVPDRFSGSGSGTDFTLTISSLQAEDVAVYYCQQTKEVPYTFGGGTKVEIK
binds | mAb5 H1L1 (antibody, human IgG1, V domains shown) VH: QVQLVQSGAEVKKPGASVKVSCKASGYTFTDYNMHWVRQAPGQRLEWMGYIVPLNGGSTFNQKFKGRVTITVDTSASTAYMELSSLRSEDTAVYYCARGGTRFAYWGQGTLVTVS VL: DIVMTQSPDSLAVSLGERATINCRASESVDNFGVSFMYWFQQKPGQPPKLLIYGASNQGSGVPDRFSGSGSGTDFTLTISSLQAEDVAVYYCQQTKEVPYTFGGGTKVEIK
binds | mAb14 H3L1 (antibody, human IgG1, V domains shown) VH: QVQLVQSGAEVKKPGASVKVSCKASGYTFTDYNMHWVRQAPGQRLEWIGYIVPLNGGSTFNQKFKGRATITVDTSASTAYMELSSLRSEDTAVYYCARGGTRFAYWGQGTLVTVSS VL: DIVMTQSPDSLAVSLGERATINCRASESVDNFGVSFMYWFQQKPGQPPKLLIYGASNQGSGVPDRFSGSGSGTDFTLTISSLQAEDVAVYYCQQTKEVPYTFGGGTKVEIK

Each binder was assayed against T1, human CD39 expressed at the cell surface (assay: flow cytometry titration on Ramos lymphoma cells (Mean of Fluorescence), panel L0).

Binder | binding result
mAb10 H2*L0 (antibody, human IgG1, V domains shown) VH: QVQLVQSGAEVKKPGASVKVSCKASGYTFTDYNMHWVRQAPGQRLEWMGYIVPLNGGSTFSQKFKGRATITVDTSASTAYMELSSLRSEDTAVYYCARGGTRFAYWGQGTLVTVSS VL: DIVMTQSPDSLAVSLGERATINCRASESVDNFGVSFMYWYQQKPGQPPKLLIYGASNQGSGVPDRFSGSGSGTDFTLTISSLQAEDVAVYYCQQTKEVPYTFGGGTKVEIK | binds
mAb4 H1L0 (antibody, human IgG1, V domains shown) VH: QVQLVQSGAEVKKPGASVKVSCKASGYTFTDYNMHWVRQAPGQRLEWMGYIVPLNGGSTFNQKFKGRVTITVDTSASTAYMELSSLRSEDTAVYYCARGGTRFAYWGQGTLVTVS VL: DIVMTQSPDSLAVSLGERATINCRASESVDNFGVSFMYWYQQKPGQPPKLLIYGASNQGSGVPDRFSGSGSGTDFTLTISSLQAEDVAVYYCQQTKEVPYTFGGGTKVEIK | binds
mAb19 H4L0 (antibody, human IgG1, V domains shown) VH: QVQLVQSGAEVKKPGASVKVSCKASGYTFTDYNMHWVRQAPGQRLEWIGYIVPLNGGSTFNQKFKGRATITVDTSARTAYMELSSLRSEDTAVYYCARGGTRFAYWGQGTLVTVSS VL: DIVMTQSPDSLAVSLGERATINCRASESVDNFGVSFMYWYQQKPGQPPKLLIYGASNQGSGVPDRFSGSGSGTDFTLTISSLQAEDVAVYYCQQTKEVPYTFGGGTKVEIK | binds
mAb1 H0L0 (antibody, human IgG1, V domains shown) VH: QVQLVQSGAEVKKPGASVKVSCKASGYTFTDYNMHWVRQAPGQRLEWMGYIVPLNGGSTFNQKFKGRVTITRDTSASTAYMELSSLRSEDTAVYYCARGGTRFAYWGQGTLVTVSS VL: DIVMTQSPDSLAVSLGERATINCRASESVDNFGVSFMYWYQQKPGQPPKLLIYGASNQGSGVPDRFSGSGSGTDFTLTISSLQAEDVAVYYCQQTKEVPYTFGGGTKVEIK | binds
mAb22 H4*L0 (antibody, human IgG1, V domains shown) VH: QVQLVQSGAEVKKPGASVKVSCKASGYTFTDYNMHWVRQAPGQRLEWIGYIVPLNGGSTFSQKFQGRATITVDTSARTAYMELSSLRSEDTAVYYCARGGTRFAYWGQGTLVTVSS VL: DIVMTQSPDSLAVSLGERATINCRASESVDNFGVSFMYWYQQKPGQPPKLLIYGASNQGSGVPDRFSGSGSGTDFTLTISSLQAEDVAVYYCQQTKEVPYTFGGGTKVEIK | binds
mAb13 H3L0 (antibody, human IgG1, V domains shown) VH: QVQLVQSGAEVKKPGASVKVSCKASGYTFTDYNMHWVRQAPGQRLEWIGYIVPLNGGSTFNQKFKGRATITVDTSASTAYMELSSLRSEDTAVYYCARGGTRFAYWGQGTLVTVSS VL: DIVMTQSPDSLAVSLGERATINCRASESVDNFGVSFMYWYQQKPGQPPKLLIYGASNQGSGVPDRFSGSGSGTDFTLTISSLQAEDVAVYYCQQTKEVPYTFGGGTKVEIK | binds

Second part, the binder after the results:

binding result | Binder
binds | mAb16 H3*L0 (antibody, human IgG1, V domains shown) VH: QVQLVQSGAEVKKPGASVKVSCKASGYTFTDYNMHWVRQAPGQRLEWIGYIVPLNGGSTFSQKFQGRATITVDTSASTAYMELSSLRSEDTAVYYCARGGTRFAYWGQGTLVTVSS VL: DIVMTQSPDSLAVSLGERATINCRASESVDNFGVSFMYWYQQKPGQPPKLLIYGASNQGSGVPDRFSGSGSGTDFTLTISSLQAEDVAVYYCQQTKEVPYTFGGGTKVEIK
binds | mAb7 H2L0 (antibody, human IgG1, V domains shown) VH: QVQLVQSGAEVKKPGASVKVSCKASGYTFTDYNMHWVRQAPGQRLEWMGYIVPLNGGSTFNQKFKGRATITVDTSASTAYMELSSLRSEDTAVYYCARGGTRFAYWGQGTLVTVSS VL: DIVMTQSPDSLAVSLGERATINCRASESVDNFGVSFMYWYQQKPGQPPKLLIYGASNQGSGVPDRFSGSGSGTDFTLTISSLQAEDVAVYYCQQTKEVPYTFGGGTKVEIK

What follows are binders tested against T1, human CD39 expressed at the cell surface (assay: flow cytometry titration on Ramos lymphoma cells (Mean of Fluorescence), panel L1*).

binding result | Binder
binds | mAb3 H0L1* (antibody, human IgG1, V domains shown) VH: QVQLVQSGAEVKKPGASVKVSCKASGYTFTDYNMHWVRQAPGQRLEWMGYIVPLNGGSTFNQKFKGRVTITRDTSASTAYMELSSLRSEDTAVYYCARGGTRFAYWGQGTLVTVSS VL: DIVMTQSPDSLAVSLGERATINCKASESVDNFGVSFMYWFQQKPGQPPKLLIYGASNQGSGVPDRFSGSGSGTDFTLTISSLQAEDVAVYYCQQTKEVPYTFGGGTKVEIK
binds | mAb6 H1L1* (antibody, human IgG1, V domains shown) VH: QVQLVQSGAEVKKPGASVKVSCKASGYTFTDYNMHWVRQAPGQRLEWMGYIVPLNGGSTFNQKFKGRVTITVDTSASTAYMELSSLRSEDTAVYYCARGGTRFAYWGQGTLVTVS VL: DIVMTQSPDSLAVSLGERATINCKASESVDNFGVSFMYWFQQKPGQPPKLLIYGASNQGSGVPDRFSGSGSGTDFTLTISSLQAEDVAVYYCQQTKEVPYTFGGGTKVEIK
binds | mAb15 H3L1* (antibody, human IgG1, V domains shown) VH: QVQLVQSGAEVKKPGASVKVSCKASGYTFTDYNMHWVRQAPGQRLEWIGYIVPLNGGSTFNQKFKGRATITVDTSASTAYMELSSLRSEDTAVYYCARGGTRFAYWGQGTLVTVSS VL: DIVMTQSPDSLAVSLGERATINCKASESVDNFGVSFMYWFQQKPGQPPKLLIYGASNQGSGVPDRFSGSGSGTDFTLTISSLQAEDVAVYYCQQTKEVPYTFGGGTKVEIK
binds | mAb24 H4*L1* (antibody, human IgG1, V domains shown) VH: QVQLVQSGAEVKKPGASVKVSCKASGYTFTDYNMHWVRQAPGQRLEWIGYIVPLNGGSTFSQKFQGRATITVDTSARTAYMELSSLRSEDTAVYYCARGGTRFAYWGQGTLVTVSS VL: DIVMTQSPDSLAVSLGERATINCKASESVDNFGVSFMYWFQQKPGQPPKLLIYGASNQGSGVPDRFSGSGSGTDFTLTISSLQAEDVAVYYCQQTKEVPYTFGGGTKVEIK
binds | mAb18 H3*L1* (antibody, human IgG1, V domains shown) VH: QVQLVQSGAEVKKPGASVKVSCKASGYTFTDYNMHWVRQAPGQRLEWIGYIVPLNGGSTFSQKFQGRATITVDTSASTAYMELSSLRSEDTAVYYCARGGTRFAYWGQGTLVTVSS VL: DIVMTQSPDSLAVSLGERATINCKASESVDNFGVSFMYWFQQKPGQPPKLLIYGASNQGSGVPDRFSGSGSGTDFTLTISSLQAEDVAVYYCQQTKEVPYTFGGGTKVEIK
binds | mAb12 H2*L1* (antibody, human IgG1, V domains shown) VH: QVQLVQSGAEVKKPGASVKVSCKASGYTFTDYNMHWVRQAPGQRLEWMGYIVPLNGGSTFSQKFKGRATITVDTSASTAYMELSSLRSEDTAVYYCARGGTRFAYWGQGTLVTVSS VL: DIVMTQSPDSLAVSLGERATINCKASESVDNFGVSFMYWFQQKPGQPPKLLIYGASNQGSGVPDRFSGSGSGTDFTLTISSLQAEDVAVYYCQQTKEVPYTFGGGTKVEIK
binds | mAb9 H2L1* (antibody, human IgG1, V domains shown) VH: QVQLVQSGAEVKKPGASVKVSCKASGYTFTDYNMHWVRQAPGQRLEWMGYIVPLNGGSTFNQKFKGRATITVDTSASTAYMELSSLRSEDTAVYYCARGGTRFAYWGQGTLVTVSS VL: DIVMTQSPDSLAVSLGERATINCKASESVDNFGVSFMYWFQQKPGQPPKLLIYGASNQGSGVPDRFSGSGSGTDFTLTISSLQAEDVAVYYCQQTKEVPYTFGGGTKVEIK
binds | mAb21 H4L1* (antibody, human IgG1, kappa, V domains shown) VH: QVQLVQSGAEVKKPGASVKVSCKASGYTFTDYNMHWVRQAPGQRLEWIGYIVPLNGGSTFNQKFKGRATITVDTSARTAYMELSSLRSEDTAVYYCARGGTRFAYWGQGTLVTVSS VL: DIVMTQSPDSLAVSLGERATINCKASESVDNFGVSFMYWFQQKPGQPPKLLIYGASNQGSGVPDRFSGSGSGTDFTLTISSLQAEDVAVYYCQQTKEVPYTFGGGTKVEIKR
